Data as given in patent US7867500B2, “Cofactor that modulates steroid receptor activities” (The United States of America as represented by the …, priority 2004, dated 2011).

T1: thyroid receptor β (TRβ) (Homo sapiens, UniProt P10828)
T1 construct: the whole cell actions of TIF2 with full length AR and TRβ; expressed in transfected cells; host or cells: CV-1
T1 sequence (P10828 1-461): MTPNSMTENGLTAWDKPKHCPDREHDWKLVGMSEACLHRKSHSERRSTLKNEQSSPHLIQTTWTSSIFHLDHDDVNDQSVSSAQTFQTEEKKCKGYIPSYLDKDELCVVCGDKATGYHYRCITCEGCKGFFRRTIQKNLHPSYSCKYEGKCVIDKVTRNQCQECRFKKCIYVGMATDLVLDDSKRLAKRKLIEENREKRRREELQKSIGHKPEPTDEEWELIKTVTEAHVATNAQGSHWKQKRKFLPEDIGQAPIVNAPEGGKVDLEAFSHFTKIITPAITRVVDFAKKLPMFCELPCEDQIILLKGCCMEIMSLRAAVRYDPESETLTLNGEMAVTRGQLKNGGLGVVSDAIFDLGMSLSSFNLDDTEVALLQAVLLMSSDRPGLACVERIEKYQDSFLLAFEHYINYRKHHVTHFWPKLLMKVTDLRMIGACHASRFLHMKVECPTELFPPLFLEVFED


Assays:
[1] = molecular target: T2, ERβ (Homo sapiens, UniProt Q92731); assay: Mammalian two-hybrid assay with VP16 full length receptor: ERβ; type: cell-based; conditions: 1 μM estradiol
T2 construct: plus VP16 fused to the indicated full length receptors; expressed in transfected cells; host or cells: CV-1
T2 sequence (Q92731 whole entry, species assumed, the tested form may be a part): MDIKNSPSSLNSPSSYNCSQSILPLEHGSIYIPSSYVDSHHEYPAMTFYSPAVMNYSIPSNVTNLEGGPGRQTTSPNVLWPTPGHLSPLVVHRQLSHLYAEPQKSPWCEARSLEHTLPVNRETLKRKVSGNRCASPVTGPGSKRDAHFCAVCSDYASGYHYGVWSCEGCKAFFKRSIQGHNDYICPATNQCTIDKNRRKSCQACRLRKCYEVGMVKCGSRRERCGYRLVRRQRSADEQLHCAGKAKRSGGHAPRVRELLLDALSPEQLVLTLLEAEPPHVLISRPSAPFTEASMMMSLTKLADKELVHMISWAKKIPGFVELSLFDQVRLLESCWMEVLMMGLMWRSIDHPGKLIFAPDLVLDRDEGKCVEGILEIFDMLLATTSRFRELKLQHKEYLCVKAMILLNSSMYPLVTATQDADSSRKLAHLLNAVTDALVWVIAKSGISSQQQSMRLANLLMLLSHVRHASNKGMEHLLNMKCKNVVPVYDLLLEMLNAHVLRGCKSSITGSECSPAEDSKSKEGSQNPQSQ
Method: FIG. 6C1-3 illustrate the association of STAMP with assorted steroid/nuclear receptors, including glucocorticoid receptors (GRs), progesterone receptors (PRs), androgen receptors (ARs), estrogen receptors (ER α or β), PPARγ2 receptors, thyroid receptor beta (TR), and retinoid (α) receptors (RAR α or RXR α). Triplicate samples of CV-1 cells were transfected (as described for FIG. 6B) with GAL, or GAL fused to TIF2.4 or STAMP834C, plus VP16 fused to the indicated full length receptors and incubated with the appropriate steroid (1 μM Dex, 20 nM R5020, 1 nM R1881, 0.1 μM triiodothyronine, or 1 μM estradiol, roziglitazone, or 9-cis-retinoic acid). The average relative luciferase activities of 2-3 experiments±S.E.M. were then plotted. FIG. 6C1 illustrates the effects of STAMP association upon GR, PR and AR induced expression. FIG. 6C2 illustrates the effects of STAMP association upon ERα, ERβ and PPARγ2 induced expression. FIG. 6C3 illustrates the effects of STAMP association upon TR, RARα and RXRα induced expression.
These assays were conducted as described (He et al., 2002). […]

[2] = molecular target: T1, thyroid receptor β (TRβ); assay: TRβ-mediated induction of reporter in CV-1 cells; type: cell-based; conditions: triiodothyronine; regardless of whether TIF2 is present
Method: FIG. 6D1-2 illustrate the effects of STAMP and TIF2 on androgen receptor (AR, FIG. 6D1) and thyroid receptor β (TRβ, FIG. 6D2) expression. […] Luciferase activities, normalized to the internal Renilla control values, and the fold changes in EC50 and fold induction were determined and plotted as in FIG. 4B.

[3] = molecular target: T3, GRIP1 (Mus musculus, UniProt Q61026); assay: Whole cell co-immunoprecipitation in Cos-7 cells: HA-GRIP1; type: binding; conditions: EtOH ± 1 μM Dex, 2 hr
T3 construct: expressed in transfected cells; host or cells: Cos-7
T3 sequence (Q61026 5-1462 limits assumed, one chain of several): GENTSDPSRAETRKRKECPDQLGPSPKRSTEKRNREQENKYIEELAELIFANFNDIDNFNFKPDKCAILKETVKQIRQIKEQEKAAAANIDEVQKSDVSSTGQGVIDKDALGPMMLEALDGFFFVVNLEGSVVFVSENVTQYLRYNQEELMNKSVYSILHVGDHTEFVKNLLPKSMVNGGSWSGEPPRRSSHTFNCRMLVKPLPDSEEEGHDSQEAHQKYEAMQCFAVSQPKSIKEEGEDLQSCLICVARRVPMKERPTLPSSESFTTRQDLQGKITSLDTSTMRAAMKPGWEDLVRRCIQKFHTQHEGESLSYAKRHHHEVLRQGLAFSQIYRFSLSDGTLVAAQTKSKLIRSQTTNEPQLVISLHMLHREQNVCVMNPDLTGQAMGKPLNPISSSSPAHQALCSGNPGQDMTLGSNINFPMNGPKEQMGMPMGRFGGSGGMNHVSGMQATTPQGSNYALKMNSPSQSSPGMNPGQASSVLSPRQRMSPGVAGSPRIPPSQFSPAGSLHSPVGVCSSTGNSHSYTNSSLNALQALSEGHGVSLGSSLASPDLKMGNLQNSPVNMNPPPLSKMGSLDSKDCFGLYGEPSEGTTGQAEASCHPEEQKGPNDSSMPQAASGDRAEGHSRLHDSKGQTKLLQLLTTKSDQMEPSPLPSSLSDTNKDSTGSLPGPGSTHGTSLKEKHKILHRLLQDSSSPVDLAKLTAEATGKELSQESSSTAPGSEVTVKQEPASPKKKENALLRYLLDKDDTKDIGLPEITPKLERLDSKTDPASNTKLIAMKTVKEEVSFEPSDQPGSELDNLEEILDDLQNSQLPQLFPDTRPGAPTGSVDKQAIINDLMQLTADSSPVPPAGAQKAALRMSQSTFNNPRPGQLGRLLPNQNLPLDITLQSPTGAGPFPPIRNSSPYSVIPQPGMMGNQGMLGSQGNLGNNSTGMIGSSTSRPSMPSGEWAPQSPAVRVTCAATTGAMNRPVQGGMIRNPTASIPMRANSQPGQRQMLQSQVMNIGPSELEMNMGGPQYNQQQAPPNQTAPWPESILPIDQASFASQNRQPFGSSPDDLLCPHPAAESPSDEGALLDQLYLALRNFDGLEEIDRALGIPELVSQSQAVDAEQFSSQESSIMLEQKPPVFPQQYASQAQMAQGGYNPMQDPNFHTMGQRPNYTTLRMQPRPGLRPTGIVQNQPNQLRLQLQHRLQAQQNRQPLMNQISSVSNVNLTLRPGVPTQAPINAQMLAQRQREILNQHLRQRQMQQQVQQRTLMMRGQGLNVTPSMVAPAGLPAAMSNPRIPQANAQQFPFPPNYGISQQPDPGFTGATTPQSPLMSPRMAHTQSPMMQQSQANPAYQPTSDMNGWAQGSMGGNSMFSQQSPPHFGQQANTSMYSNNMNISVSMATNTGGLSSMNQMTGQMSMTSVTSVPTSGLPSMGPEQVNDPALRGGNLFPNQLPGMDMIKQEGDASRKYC
Method: FIG. 7C1-3 illustrate whole cell co-immunoprecipitation of STAMP, GR, and TIF2/GRIP1. Cos-7 cells that had been co-transfected with Flag/STAMP (or Flag itself), HA/GRIP1, and GR plasmids (10 μg of each/150 mm dish) for 48 hr were treated for 2 hr with EtOH±1 μM Dex before being lysed as described in Example 1. Lysate was either analyzed on SDS-PAGE gels or treated with anti-Flag antibody to immunoprecipitate Flag/STAMP. The pellets were separated on SDS-PAGE gels and Western blotted with anti-Flag (FIG. 7C1), anti-HA (FIG. 7C2), or anti-GR antibodies (FIG. 7C3). In each panel, lane 1=5.7% of input lysate, lane 2=IP pellet of Flag/STAMP, HA/GRIP1, and GR+EtOH, lane 3=IP pellet of Flag/STAMP, HA/GRIP1, and GR+Dex, and lane 4=control IP pellet of Flag, HA/GRIP1, and GR+EtOH. Similar results were obtained in a second experiment.
Immunoprecipitations were conducted as generally described in Wang et al. (2004) Mol. Endocrinol. 18: 1476-95, with slight modifications. The day before transfection, Cos-7 cells were seeded into 150 mm dishes at 200,000 cells per dish containing 20 ml of media. On the next day, about 30 μg of DNA/dish was transfected with 60 μl of FuGene reagent. […]

Molecule | interaction with estrogen receptor β [1] | increase of the fold induction with TRβ [2] | left-shift in the dose-response curve with TRβ [2] | co-immunoprecipitation of GRIP1 with Flag-STAMP by anti-Flag antibody [3]
STAMP834C: STAMP fragment amino acids 834-1277, receptor interaction domain (RID) (protein) GDHPETIMEEVKIKPPKQQQTTEIHSDKLSRFTTSAEKEAKLVYSNSSSGPTATLQKIPNTHLSSVTTSDLSPGPCHHSSLSQIPSAIPSMPHQPTILLNTVSASASPCLHPGAQNIPSPTGLPRCRSGSHTIGPFSSFQSAAHIYSQKLSRPSSAKAGSCYLNKHHSGIAKTQKEGEDASLYSKRYNQSMVTAELQRLAEKQAARQYSPSSHINLLTQQVTNLNLATGIINRSSASAPPTLRPIISPSGPTWSTQSDPQAPENHSSSPGSRSLQTGGFAWEGEVENNVYSQATGVVPQHKYHPTAGSYQLQFALQQLEQQKLQSRQLLDQSRARHQAIFGSQTLPNSNLWTMNNGAGCRISSATASGQKPTTLPQKVVPPPSSCASLVPKPPPNHEQVLRRATSQKASKGSSAEGQLNGLQSSLNPAASVPITSSTDPAHTKI | lack of interaction | – | – | –
STAMP: SRC-1 and TIF2 Associated Modulatory Protein, 1277 amino acid human polypeptide, expressed from transfected plasmid (protein) MARDLEETASSSEDEEVISQEDHPCIMWTGGCRRIPVLVFHADAILTKDNNIRVIGERYHLSYKIVRTDSRLVRSILTAHGFHEVHPSSTDYNLMWTGSHLKPFLLRTLSEAQKVNHFPRSYELTRKDRLYKNIIRMQHTHGFKVFHILPQTFLLPAEYAEFCNSYSKDRGPWIVKPVASSRGRGVYLINNPNQISLEENILVSRYINNPLLIDDFKFDVRLYVLVTSYDPLVIYLYEEGLARFATVRYDQGAKNIRNQFMHLTNYSVNKKSGDYVSCDDPEVEDYGNKWSMSAMLRYLKQEGRDTTALMAHVEDLIIKTIISAELAIATACKTFVPHRSSCFELYGFDVLIDSTLKPWLLEVNLSPSLACDAPLDLKIKASMISDMFTVVGFVCQDPAQRASTRPIYPTFESSRRNPFQKPQRCRPLSASDAEMKNLVGSAREKGPGKLGGSVLGLSMEEIKVLRRVKEENDRRGGFIRIFPTSETWEIYGSYLEHKTSMNYMLATRLFQDRMTADGAPELKIESLNSKAKLHAALYERKLLSLEVRKRRRRSSRLRAMRPKYPVITQPAEMNVKTETESEEEEEVALDNEDEEQEASQEESAGFLRENQAKYTPSLTALVENTPKENSMKVREWNNKGGHCCKLETQELEPKFNLMQILQDNGNLSKMQARIAFSAYLQHVQIRLMKDSGGQTFSASWAAKEDEQMELVVRFLKRASNNLQHSLRMVLPSRRLALLERRRILAHQLGDFIIVYNKETEQMAEKKSKKKVEEEEEDGVNMENFQEFIRQASEAELEEVLTFYTQKNKSASVFLGTHSKISKNNNNYSDSGAKGDHPETIMEEVKIKPPKQQQTTEIHSDKLSRFTTSAEKEAKLVYSNSSSGPTATLQKIPNTHLSSVTTSDLSPGPCHHSSLSQIPSAIPSMPHQPTILLNTVSASASPCLHPGAQNIPSPTGLPRCRSGSHTIGPFSSFQSAAHIYSQKLSRPSSAKAGSCYLNKHHSGIAKTQKEGEDASLYSKRYNQSMVTAELQRLAEKQAARQYSPSSHINLLTQQVTNLNLATGIINRSSASAPPTLRPIISPSGPTWSTQSDPQAPENHSSSPGSRSLQTGGFAWEGEVENNVYSQATGVVPQHKYHPTAGSYQLQFALQQLEQQKLQSRQLLDQSRARHQAIFGSQTLPNSNLWTMNNGAGCRISSATASGQKPTTLPQKVVPPPSSCASLVPKPPPNHEQVLRRATSQKASKGSSAEGQLNGLQSSLNPAASVPITSSTDPAHTKI | – | little ability | little ability | co-immunoprecipitated
